The target in one test is T1, Human IL-17A蛋白 (Human, UniProt Q16552 24-155).
T1 sequence (looked up): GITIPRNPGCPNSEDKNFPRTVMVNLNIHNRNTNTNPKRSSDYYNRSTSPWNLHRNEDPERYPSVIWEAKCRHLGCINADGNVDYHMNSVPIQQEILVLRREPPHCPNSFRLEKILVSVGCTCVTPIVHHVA
As to the kind of experiment: cell-based or functional assay.

Test [1] deals with T2, Human IL-17A重组蛋白 (IL-17A-His) (Human, UniProt Q16552 24-155, biotinylated (Biotin-IL-17A-His) in the ELISA of paragraph 259; site not stated).
T2 construct: Recombinant antigen expressed in E. coli BL21 from pET28a, purified on a nickel column; also called IL-17A抗原蛋白; IL-17抗原
T2 sequence: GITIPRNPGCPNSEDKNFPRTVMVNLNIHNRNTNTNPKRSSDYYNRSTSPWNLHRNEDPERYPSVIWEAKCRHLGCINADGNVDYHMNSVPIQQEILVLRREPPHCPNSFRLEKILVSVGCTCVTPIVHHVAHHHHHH
Briefly: ELISA: antibody coated at 2 ug/mL, Biotin-IL-17A-His titrated from 10 ug/mL (5-fold, 7 points), HRP-Streptavidin. On the technique in general: In an ELISA, binding on a coated surface is turned into a signal by an enzyme label.

B1: Ixekizumab (antibody, human IgG4 S228P, kappa, V domains shown)
VH: QVQLVQSGAEVKKPGSSVKVSCKASGYSFTDYHIHWVRQAPGQGLEWMGVINPMYGTTDYNQRFKGRVTITADESTSTAYMELSSLRSEDTAVYYCARYDYFTGTGVYWGQGTLVTVSS
VL: DIVMTQTPLSLSVTPGQPASISCRSSRSLVHSRGNTYLHWYLQKPGQSPQLLIYKVSNRFIGVPDRFSGSGSGTDFTLKISRVEAEDVGVYYCSQSTHLPFTFGQGTKLEIKR
notes: Made in-house: variable regions cloned into pcDNA3.4-hIgG4 and pcDNA3.4-hIgKc, expressed in 293F cells, purified on Protein A; also called 阳性对照抗体; 阳性抗体
The EC50 is the concentration that produces a half-maximal response. Take B1: in the test with Human IL-17A蛋白, the “IC50, luciferase activity of 293F-IL-17RA-IL-17Rc-ACT1-NFκB-Luc reporter cells” value worked out at 1.36 µg/mL. The molecule further showed an EC50 in test [1] of 10.1 µg/mL.

Values taken from CN117843802A (BEILAI PHARMACEUTICAL CO LTD, dated 2024).
